The text below walks through data of patent publication US20260209386A1 (MYTHIC THERAPEUTICS, published 2026).

The target of test [1] is T1, Human PTK7 Protein, His Tag, Acro Biosystems (human, UniProt Q13308 31-704).
T1 construct: Bought recombinant protein; also called CCK4; not shown: His tag
T1 sequence: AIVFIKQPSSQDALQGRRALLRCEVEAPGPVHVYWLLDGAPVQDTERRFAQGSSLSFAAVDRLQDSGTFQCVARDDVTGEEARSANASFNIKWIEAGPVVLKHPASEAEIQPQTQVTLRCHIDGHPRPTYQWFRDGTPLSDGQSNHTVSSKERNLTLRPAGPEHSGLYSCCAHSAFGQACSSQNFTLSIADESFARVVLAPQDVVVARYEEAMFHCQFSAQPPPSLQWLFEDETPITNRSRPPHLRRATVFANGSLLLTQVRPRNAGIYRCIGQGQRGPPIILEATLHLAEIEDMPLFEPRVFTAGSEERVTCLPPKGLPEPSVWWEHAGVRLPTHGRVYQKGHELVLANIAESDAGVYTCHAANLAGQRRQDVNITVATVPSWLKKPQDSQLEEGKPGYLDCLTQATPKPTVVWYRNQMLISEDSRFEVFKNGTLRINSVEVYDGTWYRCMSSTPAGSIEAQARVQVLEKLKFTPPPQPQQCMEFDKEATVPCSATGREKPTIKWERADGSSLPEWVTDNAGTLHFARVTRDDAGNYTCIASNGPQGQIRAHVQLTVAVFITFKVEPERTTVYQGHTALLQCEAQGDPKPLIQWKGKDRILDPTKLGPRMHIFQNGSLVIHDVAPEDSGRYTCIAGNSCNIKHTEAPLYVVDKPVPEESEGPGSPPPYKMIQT
The test can be described thus: BLI, anti-human Fc capture, 50 nM PTK7; 1 = pH dependent binding relative to parent. For orientation: Biolayer interferometry detects binding as a change in optical thickness at a sensor tip.

In test [2] the target is T2, Human PTK7/CCK4 Protein, His Tag, Acro Biosystems PT7-H52H3 (human, UniProt Q13308 31-704).
T2 construct: bought protein; also called Human PTK7 Protein, His Tag, Acro Biosystems; not shown: His tag
T2 sequence: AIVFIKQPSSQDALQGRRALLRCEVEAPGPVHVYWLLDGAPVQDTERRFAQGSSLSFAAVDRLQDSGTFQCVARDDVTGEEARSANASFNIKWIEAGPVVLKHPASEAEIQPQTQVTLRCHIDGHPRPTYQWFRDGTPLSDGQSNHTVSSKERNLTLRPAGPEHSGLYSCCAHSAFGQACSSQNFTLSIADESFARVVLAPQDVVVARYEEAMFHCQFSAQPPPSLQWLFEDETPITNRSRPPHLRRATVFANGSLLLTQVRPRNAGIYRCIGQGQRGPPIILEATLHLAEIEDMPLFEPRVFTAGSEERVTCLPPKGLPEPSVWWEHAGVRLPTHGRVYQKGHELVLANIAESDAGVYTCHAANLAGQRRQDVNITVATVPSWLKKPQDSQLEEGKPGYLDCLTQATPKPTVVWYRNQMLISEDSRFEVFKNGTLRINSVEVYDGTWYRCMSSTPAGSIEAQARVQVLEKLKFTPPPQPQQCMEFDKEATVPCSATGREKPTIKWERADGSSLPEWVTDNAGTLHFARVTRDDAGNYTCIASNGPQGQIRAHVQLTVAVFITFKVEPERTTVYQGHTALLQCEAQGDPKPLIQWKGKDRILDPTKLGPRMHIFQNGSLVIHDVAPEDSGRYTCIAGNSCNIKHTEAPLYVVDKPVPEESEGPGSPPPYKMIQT
The test can be described thus: BLI, antibody on anti-human Fc sensor.

B1: MYT11151 (antibody, V domains shown)
VH: EVQLVESGGGLVQPGGSLRLSCTASGFSLSTYAMSWVRQAPGKGLEWVGMIYINDNTYYASWAKGRFTISRDTSKNTVYLQMNSLRAEDTAVYFCARDIGISYYIGVSLWGQGTLVTVSS
VL: EIVMTQSPSTLSASVGDRVIITCQASQSIHTRLSWYQQKPGKAPKLLIYGASKLATGVPSRFSGSGSGAEFTLTISSLQPDDFATYYCLGEYSYTTTDGIAFGQGTKLTVL
notes: MYT9412 LC variant
As for B1, in test [1], the binding result is on record as “binds”.

B2: MYT11163 (antibody, V domains shown)
VH: EVQLVESGGGLVQPGGSLRLSCTASGFSLSTYAMSWVRQAPGKGLEWVGMIYINDNTYYASWAKGRFTISRDTSKNTVYLQMNSLRAEDTAVYFCARDIGISYYIGVSLWGQGTLVTVSS
VL: EIVMTQSPSTLSASVGDRVIITCQASQSIGTRLSWYQQKPGKAPKLLIYGASKLATGVPSRFSGSGSGAEFTLTISSLQPDDFATYYCHGEYSYTTTDGIAFGQGTKLTVL
notes: MYT9412 LC variant
On to B2, for which the binding result in test [1] is given as “binds”.

B3: MYT11166 (antibody, V domains shown)
VH: EVQLVESGGGLVQPGGSLRLSCTASGFSLSTYAMSWVRQAPGKGLEWVGMIYINDNTYYASWAKGRFTISRDTSKNTVYLQMNSLRAEDTAVYFCARDIGISYYIGVSLWGQGTLVTVSS
VL: EIVMTQSPSTLSASVGDRVIITCQASQSIGTRLSWYQQKPGKAPKLLIYGASKLATGVPSRFSGSGSGAEFTLTISSLQPDDFATYYCLGEHSYTTTDGIAFGQGTKLTVL
notes: MYT9412 LC variant
For the molecule B3, the binding result in test [1] is reported as “binds”.

B4: MYT11172 (antibody, V domains shown)
VH: EVQLVESGGGLVQPGGSLRLSCTASGFSLSTYAMSWVRQAPGKGLEWVGMIYINDNTYYASWAKGRFTISRDTSKNTVYLQMNSLRAEDTAVYFCARDIGISYYIGVSLWGQGTLVTVSS
VL: EIVMTQSPSTLSASVGDRVIITCQASQSIGTRLSWYQQKPGKAPKLLIYGASKLATGVPSRFSGSGSGAEFTLTISSLQPDDFATYYCLGEYSYTTTHGIAFGQGTKLTVL
notes: MYT9412 LC variant
Regarding B4, the binding result in test [1] is recorded as “binds”.

B5: MYT11153 (antibody, V domains shown)
VH: EVQLVESGGGLVQPGGSLRLSCTASGFSLSTYAMSWVRQAPGKGLEWVGMIYINDNTYYASWAKGRFTISRDTSKNTVYLQMNSLRAEDTAVYFCARDIGISYYIGVSLWGQGTLVTVSS
VL: EIVMTQSPSTLSASVGDRVIITCQASQSIGTHLSWYQQKPGKAPKLLIYGASKLATGVPSRFSGSGSGAEFTLTISSLQPDDFATYYCLGEYSYTTTDGIAFGQGTKLTVL
notes: MYT9412 LC variant
Regarding B5, in test [1], the binding result is “binds”.

B6: MYT11178 (antibody, V domains shown)
VH: EVQLVESGGGLVQPGGSLRLSCTASGFSLSTYAMSWVRQAPGKGLEWVGMIYINDNTYYASWAKGRFTISRDTSKNTVYLQMNSLRAEDTAVYFCARDIGISYYIGVSLWGQGTLVTVSS
VL: EIVMTQSPSTLSASVGDRVIITCQASQSIGTRLSWYQQKPGKAPKLLIYGASKLATGVPSRFSGSGSGAEFTLTISSLQPDDFATYYCLGEYSYTTTDAIAFGQGTKLTVL
notes: MYT9412 LC alanine variant
Regarding B6, the binding result in test [1] is on record as “binds”.

B7: MYT11152 (antibody, V domains shown)
VH: EVQLVESGGGLVQPGGSLRLSCTASGFSLSTYAMSWVRQAPGKGLEWVGMIYINDNTYYASWAKGRFTISRDTSKNTVYLQMNSLRAEDTAVYFCARDIGISYYIGVSLWGQGTLVTVSS
VL: EIVMTQSPSTLSASVGDRVIITCQASQSIGHRLSWYQQKPGKAPKLLIYGASKLATGVPSRFSGSGSGAEFTLTISSLQPDDFATYYCLGEYSYTTTDGIAFGQGTKLTVL
notes: MYT9412 LC variant
On to B7, for which the binding result in test [1] was “binds”.

B8: MYT11177 (antibody, V domains shown)
VH: EVQLVESGGGLVQPGGSLRLSCTASGFSLSTYAMSWVRQAPGKGLEWVGMIYINDNTYYASWAKGRFTISRDTSKNTVYLQMNSLRAEDTAVYFCARDIGISYYIGVSLWGQGTLVTVSS
VL: EIVMTQSPSTLSASVGDRVIITCQASQSIGTRLSWYQQKPGKAPKLLIYGASKLATGVPSRFSGSGSGAEFTLTISSLQPDDFATYYCLGEYSYTTTAGIAFGQGTKLTVL
notes: MYT9412 LC alanine variant
Take B8: the binding result in test [1] is given as “binds”.

B9: MYT6162 (antibody, V domains shown)
VH: QVQLVQSGPEVKKPGASVKVSCKASGYTFTDYHVHWVRQAPGKRLEWIGVISTYNDYTYNNQDFKGRVTMTRDTSASTAYMELSRLRSEDTAVYYCARGNSYFYALDYWGQGTSVTVSS
VL: EIVLTQSPATLSLSPGERATLSCRASESVDSYGKSFMHWYQQKPGQAPRLLIYRASNLESGIPARFSGSGSGTDFTLTISSLEPEDFAVYYCQQSNEDPWTFGGGTKLEIK
notes: IgG
For B9, in test [2], the binding result is listed as “no binding (tested: 50 nM PTK7)”.

B10: MYT6184 (antibody, V domains shown)
VH: QVQLVQSGPEVKKPGASVKVSCKASGYTFTDYAVHWVRQAPGKRLEWIGVISTYNDYTYNNQDFKGRVTMTRDTSASTAYMELSRLRSEDTAVYYCARHNSYFYALDYWGQGTSVTVSS
VL: EIVLTQSPATLSLSPGERATLSCRASESVDSYGKSFMHWYQQKPGQAPRLLIYRASNLESGIPARFSGSGSGTDFTLTISSLEPEDFAVYYCQQSNEDPWTFGGGTKLEIK
notes: IgG
Regarding B10, the binding result in test [2] was “no binding (tested: 50 nM PTK7)”.

B11: MYT6186 (antibody, V domains shown)
VH: QVQLVQSGPEVKKPGASVKVSCKASGYTFTDYAVHWVRQAPGKRLEWIGVISTYNDYTYNNQDFKGRVTMTRDTSASTAYMELSRLRSEDTAVYYCARGNHYFYALDYWGQGTSVTVSS
VL: EIVLTQSPATLSLSPGERATLSCRASESVDSYGKSFMHWYQQKPGQAPRLLIYRASNLESGIPARFSGSGSGTDFTLTISSLEPEDFAVYYCQQSNEDPWTFGGGTKLEIK
notes: IgG
As for B11, the binding result in test [2] is “no binding (tested: 50 nM PTK7)”.

B12: MYT6190 (antibody, V domains shown)
VH: QVQLVQSGPEVKKPGASVKVSCKASGYTFTDYAVHWVRQAPGKRLEWIGVISTYNDYTYNNQDFKGRVTMTRDTSASTAYMELSRLRSEDTAVYYCARGNSYFYHLDYWGQGTSVTVSS
VL: EIVLTQSPATLSLSPGERATLSCRASESVDSYGKSFMHWYQQKPGQAPRLLIYRASNLESGIPARFSGSGSGTDFTLTISSLEPEDFAVYYCQQSNEDPWTFGGGTKLEIK
notes: IgG
Turning to B12, the binding result in test [2] was “no binding (tested: 50 nM PTK7)”.

B13: MYT6206 (antibody, V domains shown)
VH: QVQLVQSGPEVKKPGASVKVSCKASGYTFTDYAVHWVRQAPGKRLEWIGVISTYNDYTYNNQDFKGRVTMTRDTSASTAYMELSRLRSEDTAVYYCARGNSYFYALDYWGQGTSVTVSS
VL: EIVLTQSPATLSLSPGERATLSCRASESVDSYGKSHMHWYQQKPGQAPRLLIYRASNLESGIPARFSGSGSGTDFTLTISSLEPEDFAVYYCQQSNEDPWTFGGGTKLEIK
notes: IgG
With B13, in test [2], the binding result is listed as “no binding (tested: 50 nM PTK7)”.

B14: MYT6165 (antibody, V domains shown)
VH: QVQLVQSGPEVKKPGASVKVSCKASGYTFTDYAVHWVRQAPGKRLEWIGHISTYNDYTYNNQDFKGRVTMTRDTSASTAYMELSRLRSEDTAVYYCARGNSYFYALDYWGQGTSVTVSS
VL: EIVLTQSPATLSLSPGERATLSCRASESVDSYGKSFMHWYQQKPGQAPRLLIYRASNLESGIPARFSGSGSGTDFTLTISSLEPEDFAVYYCQQSNEDPWTFGGGTKLEIK
notes: IgG
In the case of B14, in test [2], the binding result is on record as “no binding (tested: 50 nM PTK7)”.

B15: MYT6209 (antibody, V domains shown)
VH: QVQLVQSGPEVKKPGASVKVSCKASGYTFTDYAVHWVRQAPGKRLEWIGVISTYNDYTYNNQDFKGRVTMTRDTSASTAYMELSRLRSEDTAVYYCARGNSYFYALDYWGQGTSVTVSS
VL: EIVLTQSPATLSLSPGERATLSCRASESVDSYGKSFMHWYQQKPGQAPRLLIYHASNLESGIPARFSGSGSGTDFTLTISSLEPEDFAVYYCQQSNEDPWTFGGGTKLEIK
notes: IgG
With B15, in test [2], the binding result is given as “no binding (tested: 50 nM PTK7)”.
